In assay [1] the target is HLA-A*26:02. In words: IEDB peptide-MHC binding, purified MHC/direct/fluorescence; filed as Kd, often an IC50 or EC50 that approximates it; ≥ and ≤ were set here for values at or beyond the usual limits of such assays. Particulars: source organism: Coxiella burnetii Q321.
Assay [2] addresses HLA-B*58:01. The assay is described as above.
For assay [3], the target named is HLA-A*31:01. The assay is described as above.
In assay [4] the target is HLA-A*11:01. The description is as above.
Assay [5] deals with HLA-A*26:03. The assay is described as above. Particulars: source organism: Coxiella burnetii Q321.
Assay [6] concerns the target HLA-A*26:01. The assay is described as above.
The target of assay [7] is HLA-B*27:05. Described as above.
Assay [8] addresses HLA-B*40:01. The assay is described as above.
In assay [9] the target is HLA-B*48:01. The description is as above.
The target in assay [10] is HLA-B*57:01. Described as above.
Assay [11] concerns the target HLA-B*46:01. The description is as above.
The target in assay [12] is HLA-A*69:01. Described as above.
Assay [13] addresses HLA-B*15:17. Described as above.
Assay [14] deals with HLA-A*03:01. The description is as above.
Assay [15] deals with HLA-A*02:01. Briefly: IEDB peptide-MHC binding, purified MHC/competitive/fluorescence; filed as Kd, often an IC50 or EC50 that approximates it; ≥ and ≤ were set here for values at or beyond the usual limits of such assays.
For assay [16], the target named is HLA-B*08:01. Described as above. Particulars: source organism: Coxiella burnetii RSA 493.
Assay [17] deals with HLA-A*01:01. Described as above. Particulars: source organism: Coxiella burnetii RSA 493.
For assay [18], the target named is HLA-B*15:01. The assay is described as above.
The target in assay [19] is HLA-A*30:01. The description is as above.
Assay [20] addresses HLA-B*39:01. Described as above. Particulars: source organism: Coxiella burnetii RSA 493.
The target in assay [21] is HLA-A*24:03. In words: IEDB peptide-MHC binding, purified MHC/direct/fluorescence; filed as Kd, often an IC50 or EC50 that approximates it; ≥ and ≤ were set here for values at or beyond the usual limits of such assays. Particulars: source organism: Salmonella enterica subsp. enterica serovar Typhimurium.
Assay [22] deals with HLA-A*02:01. Described as above.
The target in assay [23] is HLA-B*08:01. The description is as above.
For assay [24], the target named is HLA-A*01:01. The assay is described as above.
The target of assay [25] is HLA-B*15:01. The assay is described as above.
For assay [26], the target named is HLA-B*07:02. Described as above.
In assay [27] the target is HLA-B*44:02. The assay is described as above. Particulars: source organism: Salmonella enterica subsp. enterica serovar Typhimurium.
The target in assay [28] is HLA-A*02:50. Briefly: IEDB peptide-MHC binding, purified MHC/competitive/fluorescence; filed as Kd, often an IC50 or EC50 that approximates it; ≥ and ≤ were set here for values at or beyond the usual limits of such assays. Particulars: source organism: Aeromonas salmonicida subsp. salmonicida.
Assay [29] concerns the target HLA-B*08:02. Briefly: IEDB peptide-MHC binding, purified MHC/direct/fluorescence; filed as Kd, often an IC50 or EC50 that approximates it; ≥ and ≤ were set here for values at or beyond the usual limits of such assays.
Assay [30] concerns the target HLA-A*68:02. The description is as above. Particulars: source organism: Marburg virus - Musoke, Kenya, 1980.
The target in assay [31] is HLA-B*38:01. The description is as above.
Assay [32] addresses HLA-B*15:09. The description is as above.
For assay [33], the target named is HLA-C*05:01. Described as above. Particulars: source organism: Orthomarburgvirus marburgense.
In assay [34] the target is HLA-B*18:01. The description is as above.
Assay [35] deals with HLA-B*39:01. The assay is described as above. Particulars: source organism: Marburg virus - Musoke, Kenya, 1980.
The target of assay [36] is HLA-A*26:02. In words: IEDB peptide-MHC binding, purified MHC/competitive/fluorescence; filed as Kd, often an IC50 or EC50 that approximates it; ≥ and ≤ were set here for values at or beyond the usual limits of such assays. Particulars: source organism: Orthomarburgvirus marburgense.
In assay [37] the target is HLA-B*51:01. Briefly: IEDB peptide-MHC binding, purified MHC/direct/fluorescence; filed as Kd, often an IC50 or EC50 that approximates it; ≥ and ≤ were set here for values at or beyond the usual limits of such assays. Particulars: source organism: Mycobacterium tuberculosis.
The target in assay [38] is HLA-B*83:01. Briefly: IEDB peptide-MHC binding, purified MHC/competitive/fluorescence; filed as Kd, often an IC50 or EC50 that approximates it; ≥ and ≤ were set here for values at or beyond the usual limits of such assays. Particulars: source organism: Mycobacterium tuberculosis C.
For assay [39], the target named is HLA-B*45:06. The assay is described as above. Particulars: source organism: Mycobacterium tuberculosis C.
The target of assay [40] is HLA-B*15:42. The assay is described as above. Particulars: source organism: Mycobacterium tuberculosis C.
Setting [41] is: source organism: Coxiella burnetii.
Where [42] appears, read: source organism: Coxiella burnetii RSA 493.
The mark [43] stands for this setting: source organism: Salmonella enterica subsp. enterica serovar Typhimurium.
Where [44] appears, read: source organism: Ravn virus - Ravn, Kenya, 1987.
[45] abbreviates: source organism: Marburg virus - Musoke, Kenya, 1980.
The mark [46] stands for this setting: source organism: Orthomarburgvirus marburgense.
[47] abbreviates: source organism: Mycobacterium tuberculosis str. Haarlem.
Setting [48] is: source organism: Mycobacterium tuberculosis.

A value given as a limit tells only on which side of the number the result lay.

For orientation: Kd means a measure of binding affinity in units of concentration. Lower therefore signals a tighter complex.

Turning to EIYRTLYGL, the Kd was 0.006 µM in [1]; at least 20 µM in assay [2] (setting [41]); at least 20 µM in assay [3] (setting [41]); at least 20 µM in [4] (setting [41]); 0.182 µM in assay [5]; 0.067 µM in [6] (source organism: Coxiella burnetii Q321). In addition, the dissociation constant Kd is at least 20 µM in assay [7] (setting [41]); at least 20 µM in assay [8] (setting [41]); at least 20 µM in assay [9] (setting [41]); at least 20 µM in [10] (setting [41]); at least 20 µM in assay [11] (setting [41]); 0.0014 µM in assay [12] (setting [41]). Moreover, the Kd in assay [13] (setting [41]) was 0.384 µM; in [14] (setting [41]) it was at least 20 µM; in assay [15] (setting [42]) it was at least 20 µM; in assay [16] it was 7 µM; in assay [17] it was 4.29 µM; in [18] (setting [42]), at least 20 µM. In addition, the Kd came to 2.47 µM in assay [19] (setting [42]) and 2.74 µM in [20].

For the sequence FMIDWILDA, the Kd in [21] is at least 20 µM; in [2] (setting [43]) it was at least 20 µM; in [3] (setting [43]), at least 20 µM; in assay [22] (setting [43]), 0.003 µM; in assay [4] (setting [43]), at least 20 µM; in assay [23] (setting [43]), at least 20 µM. Besides, the Kd in assay [6] (setting [43]) is at least 20 µM; in assay [24] (setting [43]), at least 20 µM; in [25] (setting [43]), 0.264 µM; in [7] (setting [43]), at least 20 µM; in assay [8] (setting [43]) it was at least 20 µM; in assay [12] (setting [43]), 0.056 µM. Besides, the Kd in [14] (setting [43]) was at least 20 µM; in [26] (setting [43]), at least 20 µM; in assay [27], at least 20 µM; in assay [28] it was at most 0.0001 µM.

As for IFDDLQGSL, the Kd in [29] (setting [44]), in assay [2] (setting [45]), in [30], in assay [31] (setting [44]), in assay [24] (setting [45]) and in [25] (setting [45]) was at least 20 µM each time. The Kd is at least 20 µM in [7] (setting [45]); at least 20 µM in [32] (setting [44]); at least 20 µM in [8] (setting [45]); at least 20 µM in [9] (setting [45]); at least 20 µM in [10] (setting [45]); 3.84 µM in assay [33]. Also, the Kd in [11] (setting [45]), in assay [12] (setting [45]), in assay [13] (setting [45]), in [26] (setting [45]), in [34] (setting [45]) and in assay [35] was at least 20 µM each time. The Kd in [36], in assay [15] (setting [46]) and in assay [19] (setting [46]) was at least 20 µM in each case.

Consider RPAGARAAF, for which the Kd in assay [29] (setting [47]), in assay [2] (setting [48]), in assay [37], in assay [3] (setting [48]), in assay [22] (setting [48]) and in assay [4] (setting [48]) was at least 20 µM throughout. In addition, the Kd was 6.85 µM in assay [23] (setting [47]); at least 20 µM in [6] (setting [47]); at least 20 µM in assay [31] (setting [47]); at least 20 µM in assay [24] (setting [48]); at least 20 µM in assay [7] (setting [48]); at least 20 µM in assay [32] (setting [47]). For the same sequence, the Kd in assay [8] (setting [48]), in assay [9] (setting [48]), in [10] (setting [48]), in assay [11] (setting [48]), in [12] (setting [48]) and in assay [13] (setting [48]) was at least 20 µM throughout. For the same sequence, the Kd was at least 20 µM in assay [14] (setting [48]); 11.8 µM in assay [34] (setting [48]); 0.245 µM in assay [38]; at least 5 µM in assay [39]; at least 20 µM in assay [18] (source organism: Mycobacterium tuberculosis C); at least 5 µM in [40].
